Results: the Human Domainome abundance scans (Beltran et al. 2025)

B1: POU domain, class 2, transcription factor 2, residues 200 to 269; numbered along this chain, P09086 (parent)
chain: LEELEQFARTFKQRRIKLGFTQGDVGLAMGKLYGNDFSQTTISRFEALNLSFKNMCKLKPLLEKWLNDAE

Variants of: B1
Assay: abundance fitness (aPCA) (normalised: wild type 0, dead -1); higher = more abundant; growth selection in yeast, the domain comes from the species named
Conditions: Homo sapiens

Abundance fitness of substitutions, site by site:
F45: R -0.965; A -0.78; E -1.09; T -0.989; G -1.05; M -0.109; K -0.906; V -0.371; D -0.916; Q -0.977; H -1.04; W -0.205; Y -0.158; I -0.546; C -0.752
R44: W -0.251; V -0.523; F -0.22; P -0.936; K 0.033; I -0.926; N -0.482; H -0.168; Y -0.033; G 0.008; M -0.006; Q 0.125; S 0.065; L -0.025
K53: G 0.002; I -0.073; D -0.048; S 0.005; P -0.055; F -0.044; C -0.098; T 0.064; A 0.004; H 0.016; M -0.055; L -0.015; E 0.003; Q 0.028; R -0.022; N -0.236
S51: T 0.007; Y -0.461; N -0.037; A -0.117; C -0.172; D 0.06; L -0.785; F -0.832; I -0.684; E 0.025; R -0.102; K -0.019; M -0.317; G -0.05; W -0.907; H -0.049; P 0.006; V -0.507
N49: F -0.219; H -0.018; C 0.012; E 0.07; R -0.052; Q 0.053; S -0.005; P -0.671; V -0.091; A -0.026; W -0.309; Y -0.249; I -0.037; K -0.007; G -0.004; L -0.032; D 0.049
L50: G -0.116; Y -0.174; A -0.103; I -0.039; F -0.064; T -0.054; W -0.183; N -0.53; C -0.078; K -0.658; H -0.089; R -0.625; M -0.049; E 0.008; S -0.155; V -0.036; D -0.089; P -0.674
E46: A -0.765; F -0.996; Y -0.994; Q -1.08; D -0.942; H -0.944; C -1.06; P -0.885; R -0.993; L -0.904; I -0.956; G -0.942; N -0.973; V -0.79; W -1.02; T -0.87; S -1.05; K -0.431
A47: W -0.325; S 0.053; E 0.082; G -0.002; D 0.158; Y -0.26; P -0.641; L -0.032; T 0.017; K -0.054; R -0.085; N -0.019; Q 0.035; V -0.125; I -0.037; F -0.173; H -0.144; M -0.036
F52: C -0.062; P -0.115; K -0.031; Q -0.087; M -0.105; N -0.069; Y -0.096; L -0.014; V -0.035; I -0.028; H -0.2; E -0.044; G -0.053; W -0.024; T 0.069; R 0.032; A -0.038
L48: M -0.031; F 0.056; I -0.029; Y -0.329; E 0.014; Q -0.011; W -0.158; V 0.018; D -0.27; A 0.053; K 0.07; P -0.472; S 0.028; H 0.023; N -0.026; C 0.049
